System: Saccharomyces cerevisiae
Test: transcriptional activation domain activity (GFP:mCherry ratio, weighted mean of sorted bins, harmonized to initial dataset scale) (arbitrary fluorescence ratio units); higher = stronger transcriptional activation
Settings: beta-estradiol 1 µM; induction time 4 h
How it was run: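 After a 1:5 dilution into SC with 1 uM beta-estradiol and 4 hours at 30 °C, yeast diploids carrying a GFP reporter and URA3-integrated barcoded tiles were sorted into 8 bins by GFP:mCherry ratio. The tiles were fused to an estradiol-inducible synthetic transcription factor. Barcodes were sequenced, tiles below 50 reads were discarded, and activation activity was taken as the read-weighted mean of bin median fluorescence, averaged across barcodes and linearly mapped onto the initial dataset scale.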

Row | Sequence | transcriptional activation domain activity
1 | MGRELVLFIFFFFLFFFPFFFPLLLPLLLSSVRLVDIFLLKKYYLINLSLAYP | 37400
2 | MRFSSLLFLFCLFHFPLFFFFFSSFFNFCLPILFLPNLFSPFLFPFSPHLFFF | 51900
3 | AKDEGEEEEDGSTSLNGTGKGTGTGKTHRGARGSKKGKKDGNETTSKAKGDGV | 29500
4 | EEEEEEERPAKRQKKKLAAEEDEEEGEGEGEEEEEEEERPAKRQKKKPAAEDE | 26900
5 | LQHRTWLIHWSLFPLFNYEQARETLTELFFSAPYINTIQTNCPWILRYLAAAV | 28100
6 | HLSLSPSLIPTLSFFLLLLYPLVFFIFIIYRGPLFFLFDLTHLICFIYILFIL | 27400
7 | EEEDRHRHSRHRSKRSRSRTYSEERHRSRTRDSARRSKTRTKSPDERPPASED | 40900
8 | EEAEKVPEKKPKAEEKAAEDGESSNPVHKCWNCGRTKSAVWRTKVMEDGKAVR | 33200
9 | RRRWINSTIHNLFEVVLLPDLCGFCCFSMRFVVLIDLIGTLTLPVSVIYLVYL | 63200
10 | VFLHHFRRAIFPLCNLVCSSWNVITFSHPWMIFAIIMFLHWSWILGLQKGMLI | 83600
11 | WLRVRKFTVTLATFVEPGTESILCGLYGAYALTTLPFFHNIGISSTWTSFFLI | 36600
12 | MISWLLCFFDFRGDFLYGVLFFCTIFCFAVFGFFFFLQPSTFSFTIFFLCFFS | 31000
13 | DDDIAMFDSLATTQPIDIAASNQQNGEIAQLWDFNVDQFNMTPSNSSGSATIS | 91100
14 | KKGGKAAKSADRPPSRSRLEEEYVFIDVVSSFLRAIRARVIHIRHGAIVLAHY | 64100
15 | DEDDDDDDNDDADADDEPARRPKKSKSSQKSRSKKPAAKRAKVNGTTPAAAHS | 20000
16 | SLPFHCTLLLVVINLIAVVAILWTRFASKLLGSSVCAFLYIFVGTFTILIHVR | 20500
17 | ALHLVWSGSTIYVKPLPACLVDFDFFMRFISPFPHIYEDACGFLLTYARLIVH | 89800
18 | RGSYRLFLIHARLICTIHPLHLPLLYFPAYSMCILYPTPTYITSCSLLAVSFV | 55700
19 | HIFYTQLYPAYDLPKKLQEDTELETEQENQMLNQVGNINYTHDFSLSHEIDDL | 57800
20 | MVGVNGDHELLLCAIMFPPVLLIINSLLVSILFNDCFLVLSDILLCWMLSVVV | 50400
21 | RRDSVSSSSRGQGGEKGRASSKESNNSGRQGETTSNRSQSKNRAKQTKGDKDS | 15900

Row | Sequence | transcriptional activation domain activity
22 | HCLTFHQTSKLTHILLTYRQSILVTVYSHLLLLDHSSQVWWRWMNIFFTLVIW | 69500
23 | PPYALGYFGESDHGFCSLKVDLVYSNFMIYYLIVVPRLLVYFYCLLILFFIAM | 61600
24 | RTESYDHMEPVGVDPRWDAFGPFHDYLLQAFPLVHSTLSLTKVNTWGLVYVWP | 47400
25 | DELSRQKLGPDLHTILANLPGDLFGIYSRFLRPIHPRDFIHVARFLRWLLYAW | 69500
26 | DAARGGYQSAGGAGTGSDSETNRGRGRGGRGGFRGERGGRGRGRGATPAKTEG | 27200
27 | MVSILLFFLSSAFLLTYPYPLLNLALYLLLMFIFSTLYSLTYLLLGFFFFFLA | 58600
28 | ASSYAVQHTRKKGRGGGGGEAGNKPANKAARSWDKNAELHGTQGKMHVTIAVT | 85900
29 | SYSLNTSLCQAFWHVTWRLTPPLAVFLPINPFLCLHLHFTCTLFFLLSLVMLQ | 58400
30 | MIIVFVFFSLFFFLPFLFPLAFFFLFLFPFFLPSYFPSYSLRCSYEGRPSFFF | 47100
31 | SLYLCLGMLYLRKNPLLKEPLTLEHIKARLLGHWGSDAGQIFTYIHFNRLIKK | 69300
32 | GGLFGAKPATTGGLFGSTPAAQPAQTGGLFGGGGTTGGFGASTTGGAFGSTPA | 48500
33 | EREILWRAYLRLIKHVNSIFKIRIAYEWTEDYVIKYLWSAAGYCLISIPILFT | 77100
34 | RKEAMDFDAELKRRNTHLYCAIIDLEKEMQLVAYLVCACLKKVTFLHKVCVLE | 67900
35 | LMGLDELHLRVLSSSSDDPQERLNADKVLKLLTKRRHWVLVVLLLGNVIVNES | 35800
36 | VDTCRLSAPLVWWLTFGILCTMYLLVLEVILFGILVFMVLPFIMLLYSIMLLC | 49100
37 | KFSLGGALYLLTRYCVLLQLIFDVTYEMQPPWTLNNVVWVANISDLVSGISIH | 34400
38 | LIVSWSGNYVVQHHSTRINLIDFMDSNYISHLCVYLGFSIADVCYQLTMLWMI | 77700
39 | MIGHWFVLLNLISNWIVLSSFSILFYIYIYMPLYCHYAPFIFMLFLLYIPLLI | 48800
40 | YLKELTRCAKLPYSTRAMKNLNNVAITCACTLLVSVPHFNFRGDLLKIIVAKV | 39500
41 | MLVICLLDLLLSIMRCKRNLIQFILVCTKDGFCVGLMTKSYKRSLLVKRLFCT | 39300
42 | MKILRLYLTKLPFLARPILTQLLQESLFRYGIVRELGIYLRQNYFDNTGRFTL | 83400

Row | Sequence | transcriptional activation domain activity
43 | KKEPVYDSEGNEVKPTPRKRVKKEPATEEDGSESKSASKKRVKKEADAEGDSS | 17100
44 | DGSIMEINGIPLSMLGETGSVKFQSLFANTSNSNDYNNNRTLLDASNDISIPS | 61900
45 | PKCSSLRKPTNTLQGTNHAYHEHILNTDMDLKILEDLCNISSLYEVPFGKHIN | 115000
46 | IIRARIFSYLYYGVKKFTFLFPINTVITNMAATLLCAVLVIYCTLTILPMIYY | 62200
47 | MFFLSSIFLTLSMTLSPLFLYFNWLVVYGFSSLFFIFSTPTFLPPLCFFQWYC | 45200
48 | GDGKEEGAQKKKKKKAKKAHGEEGEQEGGDEKAKKKKKKKKKKALGGRARARA | 26600
49 | SPSRRRDRDYDYSRYRRRDDSRSRSPRRRADPKDQQEKEKEKVKVKPSRAAAT | 16200
50 | FTMLIGRKRPDVSTCVLIAVVISQCLFYVVVFFVKILGLVKYFLLFSSLADKL | 56300
51 | ILLVALPLFSFGFESFLPFGKDSGILYYFWLYSTRVFCPCMGFLWAIFALLPF | 59700
52 | MVHFLVTLPYFILQCLTWLLRFHFFLPCLTFLLCFHLFFGTSLLLSFSMFSWA | 50300
53 | MPRKAAAATTEIPAEPRRSSRIKEQPKVEPAPKKAPAKPRGKKAKAAEAEAAP | 13000
54 | GHVRSHNDERPFACGWAGCERAFARQHDCRRHEQRHARDLEREREREFACAGC | 38100
55 | MLLSLYLLTPFFIDMLLALHPFTLLCVHLPTCPCILLSCFRSYPCLSLWFPFS | 45900
56 | MGLSSSCFFLLLLVLSLFYYFFLSFFFIGHVAYFMTCGGLERAFLYLLLLLLL | 49100
57 | LNDDDIEKILQPNDIFTTDRTDASTTSSTAIEDIINPSLDPQSAASPVPSSSF | 81400
58 | MTGIFFFFFLLFLFLQLGIGTVFERLLSFQFPNYILFPILPPLHPSSPPFFTY | 38600
59 | MCASVILFCLVFSSSYLLAIFKDCYLALLYYMQCWSMYYLFSDFVCHYPISKG | 72200
60 | TSKAQESKTKEGDKEEKAATKREKDDSKEEDDDDDNETEEKQAGDKRKKTNGS | 30800
61 | LHAGAAADDARTGGGGGGGTGQGRAEGRDRGAEPGAVRGGEPHGRGRAEAGAH | 8730
